Experimental data published in patent EP3632462A1.

Tests used:
[1] = target: IgG1-005-E345R/E430G/S440K (human); experiment: HP-SEC in PBS pH 7.4, equimolar mixture of the two antibodies
[2] = target: IgG1-005-E345R/E430G/Y436I/S440K (human); experiment: as above
[3] = target: FcyRIIIa receptor, V158 (high affinity) variant (UniProt P08637); experiment: cell-based or functional assay
[4] = target: Protein A (Staphylococcus aureus) (UniProt P38507); experiment: ratio of the concentrations by Octet protein A and by A280
[5] = target: Protein A column (HiTrap MabSelectSuRe); experiment: 1.0 mL HiTrap MabSelectSuRe column, pH 5.0 against neutral pH
[6] = target: IgG1-005-E345R/E430G/S440Y (human); experiment: HP-SEC with multiple angle light scattering (MALS), self-association
[7] = target: IgG1-005-E345R/E430G/S440Y (human); experiment: dynamic light scattering, 2.86 mg/mL in PBS pH 7.4, self-association
C1q (human) = C1q (human) (UniProt P02745); experiment: ELISA: antibody dilution series coated, 3% pooled human serum as source of C1q, anti-C1q detection
Chain of C1q (human) (P02745 23-245 limits assumed, chain 1 of 3): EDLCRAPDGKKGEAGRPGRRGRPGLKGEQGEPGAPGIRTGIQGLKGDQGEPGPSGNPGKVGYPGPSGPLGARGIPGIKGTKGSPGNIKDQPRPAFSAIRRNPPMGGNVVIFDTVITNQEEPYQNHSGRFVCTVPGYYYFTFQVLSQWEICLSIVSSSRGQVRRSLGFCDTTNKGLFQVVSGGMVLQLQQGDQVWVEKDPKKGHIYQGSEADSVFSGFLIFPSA
Chain of C1q (human) (P02746 28-253 limits assumed, chain 2 of 3, further chain): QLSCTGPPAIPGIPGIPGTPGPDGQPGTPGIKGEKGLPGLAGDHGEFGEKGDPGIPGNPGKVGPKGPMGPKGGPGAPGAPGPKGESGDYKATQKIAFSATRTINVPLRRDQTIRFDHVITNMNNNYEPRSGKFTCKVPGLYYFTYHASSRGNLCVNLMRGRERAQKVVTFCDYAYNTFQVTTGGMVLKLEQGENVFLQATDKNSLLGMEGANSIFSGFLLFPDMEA
Chain of C1q (human) (P02747 29-245 limits assumed, chain 3 of 3, further chain): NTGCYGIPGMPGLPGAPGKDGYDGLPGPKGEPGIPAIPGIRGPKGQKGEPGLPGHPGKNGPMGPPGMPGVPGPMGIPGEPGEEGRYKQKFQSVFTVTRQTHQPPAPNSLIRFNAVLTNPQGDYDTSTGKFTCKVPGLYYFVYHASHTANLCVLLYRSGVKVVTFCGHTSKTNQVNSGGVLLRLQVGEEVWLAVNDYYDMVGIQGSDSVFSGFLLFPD

[8] = target: Protein A (Staphylococcus aureus) (UniProt P38507); experiment: apparent IgG concentration on Octet QK protein A sensortips against an IgG standard curve; A280 gave 2905 µg/ml
[9] = target: Protein A column (HiTrap MabSelectSuRe); experiment: saturated 1.0 mL HiTrap MabSelectSuRe column loaded at pH 5.0 (antibody monomeric), A280 of the dialyzed eluate
[10] = target: Protein A column (HiTrap MabSelectSuRe); experiment: saturated 1.0 mL HiTrap MabSelectSuRe column loaded at neutral pH (hexamerization allowed), A280 of the dialyzed eluate

Chain of FcyRIIIa receptor, V158 (high affinity) variant (P08637 other isoform, or with tags, fused parts or gaps mutant limits assumed): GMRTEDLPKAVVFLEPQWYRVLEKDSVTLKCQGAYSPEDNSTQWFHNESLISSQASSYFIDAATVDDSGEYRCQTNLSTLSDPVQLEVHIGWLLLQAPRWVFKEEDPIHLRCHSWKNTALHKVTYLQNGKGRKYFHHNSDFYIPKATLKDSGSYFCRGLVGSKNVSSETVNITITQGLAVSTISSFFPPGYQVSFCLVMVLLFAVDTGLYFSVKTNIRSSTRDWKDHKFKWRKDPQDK

multimers (HP-SEC) [1] [%]	multimers (HP-SEC) [2] [%]	Substance	EC50 (ng/mL), ADCC reporter assay with Raji target cells [3] [ng/mL]	Maximal signal (RLU), ADCC reporter assay with Raji target cells [3] [RLU]	A280/Protein A x 100 (%) [4] [%]	increase of protein yield, binding at pH 5.0 against neutral pH [5] [%]	apparent average MW of the multimeric peak [6] [kDa]	monomeric subunits per complex (monomeric subunits) [6]	apparent MW in solution [7] [kDa]	monomeric subunits per complex (monomeric subunits) [7]	EC50 (C1q (human)) [µg/mL]	Octet-Protein A [8] [µg/mL]	yield of Protein A purification at 1.0 mL scale [9] [mg]	yield of Protein A purification at 1.0 mL scale [10] [mg]
65	93	IgG1-005-E345R/E430G/K439E/S440Y (antibody)	–	–	–	–	–	–	–	–	–	–	–	–
–	–	IgG1-005-E345R/E430G/S440Y (antibody)	36	394000	71	36	772	5.4	876	6.17	0.52	2050	29.1	21.4
